Data as given in patent US20230399393A1, “METHODS TO EXTEND HEALTH-SPAN AND TREAT AGE-RELATED DISEASES” (National University of Singapore, priority 2020, published 2023).

Tests used:
[1] = tested on: rheumatoid synovial cells; details: upon treatment; cited from earlier work
[2] = tested on: Primary human hepatic stellate cells (HSCs); experiment: Increasing concentrations of IL-11 or IL-6, western blot p-LKB1/p-AMPK; type: cell-based; details: 24 hours; 1.25-20 ng/ml, even at the highest concentration
Description: (§1) FIG. 23. Western blot image showing the levels of p-LKB1, LKB1, p-AMPK, AMPK in primary human hepatocytes or primary human hepatic stellate cells that are unstimulated (BL) or stimulated for 24 hours with increasing concentrations (1.25, 2.5, 5, 10 or 20 ng/ml) of IL-11 or IL-6.
(§2) Primary human hepatic stellate cells (HSCs) and human hepatocytes were stimulated for 24 hours with increasing concentrations (1.25-20 ng/ml) of IL-11 or IL-6. […] The effect of IL-11 on these markers is observable at concentrations as low as 1.25 ng/ml in both HSCs and hepatocytes.

[3] = tested on: human hepatocytes; experiment: as above; type: cell-based; details: 24 hours; 1.25-20 ng/ml, even at the highest concentration
Description: as §1, §2

[4] = tested on: Primary human cardiac fibroblasts; experiment: IL-11-stimulated fibroblasts with Rapamycin, Wortmannin or U0126, western blot; type: cell-based; details: IL11 10 ng/ml 24 hours; Rapamycin 10 nM, Wortmannin 1 μM, U0126 10 μM
Description: FIG. 18. Western blot image showing the levels of p-LKB1, LKB1, p-AMPK, AMPK in primary human cardiac fibroblasts that are unstimulated (BL+DMSO) or stimulated with IL11 for 24 hours in the presence of either DMSO, Rapamycin, Wortmannin, or U0126. IL11(10 ng/ml), Rapamycin (10 nM), Wortmannin (1 μM), U0126 (10 μM).
Primary human cardiac fibroblasts were stimulated with IL-11 for 24 hours in the presence of either DMSO, Rapamycin (mTOR inhibitor), Wortmannin (phosphoinositide 3-kinases (PI3K) inhibitor), or U0126 (MEK1/2 inhibitor) and the levels of p-LKB1 and p-AMPK were measured by western blot (FIG. 18).

[5] = tested on: Primary human hepatic stellate cells; experiment: IL-11 stimulation in the presence of DMSO or U0126, western blot; type: cell-based; details: IL-11 24 hours; U0126 10 μM
Description: FIG. 21. Western blot image showing the levels of p-ERK, ERK, p-P90RSK, P90RSK, p-LKB1, LKB1, p-AMPK, AMPK, p-mTOR, mTOR, p-p70S6K, p70S6K, p-S6RP, S6RP, SMA, and GAPDH in primary human hepatic stellate cells that are unstimulated (BL+DMSO) or stimulated for 24 hours with IL11 in the presence DMSO or U0126 (10 μM).
(§3) Primary human hepatic stellate cells and human hepatocytes were stimulated for 24 hours with IL-11 in the presence DMSO or U0126. As discussed in Example 4.4, the inventors observed that IL-11 treatment stimulates p-mTOR, p-70S6K and p-S6RP. In line with the inventors' hypothesis, administration of U0126 to IL-11-stimulated cells prevents ERK-mediated inactivation of LKB1/AMPK that stops IL11-induced mTORC1/P70S6K activation (FIG. 21 and FIG. 22, respectively).

[6] = tested on: human hepatocytes; experiment: as above; type: cell-based; details: IL-11 24 hours; U0126 10 μM
Description: FIG. 22. Western blot image showing the levels of p-ERK, ERK, p-P90RSK, P90RSK, p-LKB1, LKB1, p-AMPK, AMPK, p-mTOR, mTOR, p-p70S6K, p70S6K, p-S6RP, S6RP in primary human hepatocytes that are unstimulated (BL+DMSO) or stimulated for 24 hours with IL11 in the presence DMSO or U0126 (10 μM).
as §3

[7] = tested on: Primary human cardiac fibroblasts; experiment: IL11 or TGFβ1 stimulated fibroblasts with X203, X209 or IgG, western blot; type: cell-based; details: IL11/TGFβ1 10 ng/ml, 24 hours; antibody 2 μg/ml
Description: FIG. 19. Western blot image showing the levels of p-ERK, ERK, p-P90RSK, P90RSK, p-LKB1, LKB1, p-AMPK, AMPK, p-mTOR, mTOR, p-p70S6K, p70S6K, p-S6RP, S6RP, SMA, and GAPDH in primary human cardiac fibroblasts that are unstimulated (BL) or stimulated for 24 hours with either IL11 or TGFβ1 in the presence of X203, X209, or IgG (11E10) isotype control. IL11/TGFβ1 (10 ng/ml), IgG/X203/X209 (2 μg/ml).
Primary human cardiac fibroblasts were stimulated with IL11 or TGFβ1, or unstimulated (BL).

[8] = tested on: Primary human hepatocytes; experiment: Hepatocytes stimulated with IL-11, BSA or palmitate with X203, X209 or IgG, western blot; type: cell-based; details: 24 hours; antibody 2 μg/ml; IL11 10 ng/ml or palmitate 0.5 mM
Description: FIG. 20. Western blot image showing the levels of p-ERK, ERK, p-P90RSK, P90RSK, p-LKB1, LKB1, p-AMPK, AMPK, p-Acetyl-CoA Carboxylase (p-ACC), Acetyl-CoA Carboxylase (ACC), p-mTOR, mTOR, p-p70S6K, p70S6K, p-S6RP, S6RP in primary human hepatocytes that are unstimulated (BL) or stimulated for 24 hours with either IL11, 0.5% BSA, or palmitate (saturated fatty acid) in the presence of X203, X209, or IgG (11E10) isotype control. IL11 (10 ng/ml), IgG/X203/X209 (2 μg/ml), palmitate (0.5 mM) conjugated in free BSA (0.5% BSA solution) in the ratio of 6:1.
Primary human hepatocytes (stimulated with IL-11, BSA or palmitate, or unstimulated) were treated with X203 (anti-IL-11 antagonist antibody) and X209 (anti-IL-11Rα antagonist antibody). […] Treatment with X203 or X209 essentially reverses the effect of palmitate stimulation on these markers to the levels observed in the unstimulated control.

[9] = tested on: AML12; experiment: Senescence prevention experiment, qPCR at day 10; type: cell-based, mouse; details: 2 μg/ml during recovery period, vs IgG
Description: FIG. 24. (24A) Schematic of senescence prevention experiment for data shown in B-F. Senescent AML12 were generated by treating the cells with a sub-lethal concentration of H2O2 (0.75 mM) for 1 hour, followed by 23 hours recovery per day, for 7 days as described by Tripathi et. al. (2020). IgG/X209 (2 μg/ml) was added into the cultures during the 23 hours recovery period for 10 days; cells were harvested at day 10 for RNA extraction and subsequent qPCR experiments. Relative mRNA expression of (24B) Cdkn2a (p16), (24C) Cdkn1a (p21), (24D) Il1β, (24E) Il8, and (24F) Il11.
Briefly, senescent AML12 were generated by treating the cells with a sub-lethal concentration of H2O2 as described by Tripathi et. al. (2020) STAR Protocols 1 (2): 100064. IgG/X209 (2 μg/ml) was added into the cultures during the 23 hours recovery period for 10 days. Relative mRNA expression of Cdkn2a (p16), Cdkn1a (p21), Il1β, Il8, and Il11, as measured by qPCR is shown in FIGS. 24B, 24C, 24D, 24E and 24F, respectively. Markers of senescence (P16 and p21) and markers of inflammation (IL-1b, IL-11 and […]) are diminished in cells that have undergone IL-11-mediated signalling antagonism by X209.
(§4) Senescent AML12 were generated by treating the cells with a sub-lethal concentration of H2O2 (0.75 mM) for 1 hour, followed by 23 hours recovery per day, for 7 days as described (Tripathi, Yen, and Singh 2020, STAR Protocols 1 (2): 100064). For prevention study, AML12 cells were treated with 2 ug/ml of either IgG or X209 during the recovery period of the senescence induction stage (from day 1 to day 7); cells were harvested for total RNA collection at day 10. For reversal study, senescence was first induced for seven days followed by 2 ug/ml of IgG, X203, or X209 treatment for 3 days; cells were harvested for total RNA collection at day 10.
(§5) Total RNA was extracted from AML12 or snap-frozen tissues using Trizol (Invitrogen) and RNeasy Mini Kit (Qiagen). […] using iScript cDNA Synthesis Kit (Biorad). Gene expression analysis was performed on duplicate samples with either TaqMan (Applied Biosystems) for Il11 (Mm00434162) or fast SYBR green (Qiagen) technology using StepOnePlus™ (Applied Biosystem) for Ccl2, Ccl5, Gapdh, Il1β, Il6, Il8, p16, p21, Tnfα, over 40 cycles. Expression data were normalized to GAPDH mRNA expression and fold change was calculated using 2^−ΔΔct method.

[10] = tested on: AML12 cells; experiment: In vitro model of senescence induction, qRT-PCR at day 7; type: cell-based, mouse; details: 2 ug/ml from day 2, H2O2 0.75 mM, vs isotype-matched control IgG
Description: Senescent hepatic mouse cells were generated from cells of the mouse hepatocyte cell line AML12 as described in Tripathi et al., Star Protocols (2020) 1:100064 (hereby incorporated by reference in its entirety).
Briefly, AML12 cells were grown to 50% confluency and senescence was induced by treating the cells with a sub-lethal concentration of H2O2 (0.75 mM) for 1 h, followed by 23 h recovery per day, for a total of 7 days (as described in Tripathi et al., Star Protocols (2020) 1:100064). From day 2 onwards, 2 ug/ml of X209/X203 or isotype-matched control IgG was added to the cultures during the 23h recovery period.
Total RNA was isolated at day 7, and levels of p21 (Cdkn1a), […], Il11 and Tgfb gene expression were evaluated by qRT-PCR. Briefly, total RNA was extracted from cell lysates using Trizol (Invitrogen) followed by RNeasy column (Qiagen) purification. cDNAs were synthesized with iScript™ cDNA synthesis kit (Bio-Rad) according to manufacturer's instructions. Gene expression analysis was performed with either TaqMan (Applied Biosystems) or fast SYBR green (Qiagen) using the StepOnePlus Real-Time PCT System (Applied Biosystems) over 40 cycles. Expression data for p21 (Cdkn1a), Il1b, Il11 and Tgfb were normalised to Gapdh expression, and fold change was calculated using the 2^−ΔΔCt method.

[11] = tested on: AML12; experiment: Senescence reversal experiment, qPCR at day 10; type: cell-based, mouse; details: 2 μg/ml for 72 hours after 7 days senescence induction; vs IgG
Description: FIG. 25. (25A) Schematic of senescence reversal experiment for data shown in B-D. Senescent AML12 were generated for 7 days as described above. IgG/X203/X209 (2 μg/ml) was added into the cultures at the end of senescence induction period for 72 hours; cells were harvested at day 10 for RNA extraction and subsequent qPCR experiments. Relative mRNA expression of (25B) Cdkn1a (p21), (25C) Il1β, and (25D) Il11.
Briefly, senescent AML12 were generated for 7 days as described above, but IgG/X203/X209 (2 μg/ml) was added into the cultures at the end of senescence induction period for 72 hours.
as §4, §5

In the case of “interferon-gamma: interferon-gamma (IFNγ)”, the “expression of IL-11” value [1] is listed as “reduction”.

In the case of “IL-6: cytokine used as comparator stimulus to IL-11”, the “inactivation of LKB1 or activation of AMPK” value [2] is reported as “does not induce” and the “inactivation of LKB1 or activation of AMPK” value [3] is reported as “does not induce”.

For `N#CC(=C(/N)Sc1ccccc1N)/C(C#N)=C(\N)Sc1ccccc1N` [U0126], the “level of p-AMPK” value [4] was “increases”, the “level of p-LKB1” value [4] was “decreases” and the “ERK-mediated inactivation of LKB1/AMPK” value [5] was “prevents”. The “IL11-induced mTORC1/P70S6K activation” value [5] was “stops”, the “ERK-mediated inactivation of LKB1/AMPK” value [6] was “prevents” and the “IL11-induced mTORC1/P70S6K activation” value [6] was “stops”.

For `COc1ccc2c(c1)c(CC(=O)O)c(C)n2C(=O)c1ccc(Cl)cc1` [indomethacin, reference compound], the “expression of IL-11” value [1] is given as “reduction”.

B1: X209: mouse anti-mouse IL-11Rα IgG antagonist antibody; VH SEQ ID NO:24, VL SEQ ID NO:25 (antibody, V domains shown)
VH: QVQLQQPGAELVRPGSSVKLSCKASGYTFTNYWMHWLKQRPVQGLEWIGNIGPSDSKTHYNQKFKDKATLTVDKSSSTAYMQLNSLTSEDSAVYYCARGDYVLFTYWGQGTLVTVSA
VL: DIVLTQSPATLSLSPGERATLSCRASQSISNNLHWYQQKSHEAPRLLIKYASQSISGIPARFSGSGSGTDFTLSFSSLETEDFAVYFCQQSYSWPLTFGQGTKLEIK
With B1 the “level of phosphorylation of markers ERK, p90RSK, LKB1, mTOR, p70S6K and S6RP” value [7] was “significantly reduce”, the “levels of p-AMPK and p-ACC” value [8] was “increase” and the “levels of phosphorylated markers p-ERK, p-p90RSK, p-LKB1, p-mTOR, p-p70S6K and p-S6RP” value [8] was “reduces”. The “marker of inflammation IL-1b mRNA” value [9] was “diminished”, the “marker of inflammation IL-6” value [9] was “diminished” and the “marker of inflammation IL-11 mRNA” value [9] was “diminished”. For the same molecule, the “marker of senescence P16 (Cdkn2a) mRNA” value [9] was “diminished”, the “marker of senescence p21 (Cdkn1a) mRNA” value [9] was “diminished” and the “gene expression of Il11” value [10] was “significantly reduce”. For the same molecule, the “gene expression of Il11b” value [10] was “significantly reduce”, the “gene expression of Tgfb” value [10] was “significantly reduce” and the “gene expression of p21 (Cdkn1a)” value [10] was “significantly reduce”. For the same molecule, the “inflammation marker IL-1 b” value [11] was “significantly reduce”, the “inflammation marker IL-11” value [11] was “significantly reduce” and the “senescence marker p21” value [11] was “significantly reduce”.
